The record followed here is patent US20190225692A1 (JUNO THERAPEUTICS, published 2019).

Assay [1] deals with HPV 16 E6(29-38) peptide in the context of HLA-A02:01 on target cells (human; HPV 16). Kind of assay: cell-based or functional assay.
Assay [2] has as its target T1, HLA-A2/E6 (29-38) tetramer (human; HPV 16).
T1 construct: also called E6(29-38) peptide-MHC tetramer; E6(29-38)-loaded tetramer
Kind of assay: tetramer flow cytometry; transfected Jurkat-derived cells, CD8+ population. (In general: In flow cytometry, cells or beads pass a laser one at a time.)
Experimental: (§1) For transfection, the CD4+ and CD4+/CD8+ cell mixtures were transiently transfected with TCR-encoding plasmids and 48 hours after transfection, cells were assessed by flow cytometry for (1) binding of the target peptide in the context of an MHC molecule (HLA:A02:01) by staining with an E6(29-38) peptide- or an E7(11-19) peptide-MHC tetramer reagent, and/or (2) CD8+ independent binding of the target by co-staining the tetramer-labeled cells with an anti-CD8 antibody.

Assay [3] deals with T1, HLA-A2/E6 (29-38) tetramer. The assay can be described thus: tetramer flow cytometry; transfected 1:1 CD4+ and CD4+/CD8+ Jurkat-derived cells.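 Further: cell mixtures transiently transfected with TCR-encoding plasmids, analysed by flow cytometry 48 h later after HLA-A*02:01 E6 tetramer staining combined with anti-CD8 antibody co-staining.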
Experimental: as §1

B1: modified version of TCR 7 (codon optimized, cysteine modified) (TCR, V domains shown)
V domain 1: KNQVEQSPQSLIILEGKNCTLQCNYTVSPFSNLRWYKQDTGRGPVSLTIMTFSENTKSNGRYTATLDADTKQSSLHITASQLSDSASYICVVSRDNYGQNFVFGPGTRLSVLP
V domain 2: EPEVTQTPSHQVTQMGQEVILRCVPISNHLYFYWYRQILGQKVEFLVSFYNNEISEKSEIFDDQFSVERPDGSNFTLKIRSTKLEDSAMYFCAITDRTNYGYTFGSGTRLTVVE
As for B1, the “% CD8+/IC IFNγ+; transduced primary CD8+ T cells with T2 cells pulsed with 10 uM E6(29-38) peptide, E:T 10:1, 4 h” value in assay [1] worked out at 70.5%.

B2: modified version of TCR 14 (codon optimized, cysteine modified) (TCR)
TCR alpha: ILNVEQSPQSLHVQEGDSTNFTCSFPSSNFYALHWYRWETAKSPEALFVMTLNGDEKKKGRISATLNTKEGYSYLYIKGSQPEDSATYLCASQTGANNLFFGTGTRLTVIPYIQNPDPAVYQLRDSKSSDKSVCLFTDFDSQTNVSQSKDSDVYITDKCVLDMRSMDFKSNSAVAWSNKSDFACANAFNNSIIPEDTFFPSPESSCDVKLVEKSFETDTNLNFQNLSVIGFRILLLKVAGFNLLMTLRLWSS
TCR beta: DVKVTQSSRYLVKRTGEKVFLECVQDMDHENMFWYRQDPGLGLRLIYFSYDVKMKEKGDIPEGYSVSREKKERFSLILESASTNQTSMYLCASTFWGQRRTEAFFGQGTRLTVVEDLNKVFPPEVAVFEPSEAEISHTQKATLVCLATGFFPDHVELSWWVNGKEVHSGVCTDPQPLKEQPALNDSRYCLSSRLRVSATFWQNPRNHFRCQVQFYGLSENDEWTQDRAKPVTQIVSAEAWGRADCGFTSVSYQQGVLSATILYEILLGKATLYAVLVSALVLMAMVKRKDF
As to B2, in assay [2], the “% cells in E6 tet+/CD8+ quadrant” value is 38.4%, the “% cells in E6 tet+/CD8- quadrant” value came to 0.04%, the “% cells in E6 tet-/CD8+ quadrant” value worked out at 59.7% and the “% cells in E6 tet-/CD8- quadrant” value turned out to be 1.8%.

B3: modified version of TCR 13 (codon optimized, cysteine modified) (TCR, V domains shown)
V domain 1: AQSVTQLDSHVSVSEGTPVLLRCNYSSSYSPSLFWYVQHPNKGLQLLLKYTSAATLVKGINGFEAEFKKSETSFHLTKPSAHMSDAAEYFCVVRGGKLIFGQGTELSVKP
V domain 2: GAGVSQSPRYKVAKRGQDVALRCDPISGHVSLFWYQQALGQGPEFLTYFQNEAQLDKSGLPSDRFFAERPEGSVSTLKIQRTQQEDSAVYLCASSPTGTERELFFGEGSRLTVLE
Regarding B3, in assay [2], the “% cells in E6 tet+/CD8+ quadrant” value came out at 38.6%, the “% cells in E6 tet+/CD8- quadrant” value turned out to be 0.064%, the “% cells in E6 tet-/CD8+ quadrant” value is 59.5% and the “% cells in E6 tet-/CD8- quadrant” value amounted to 1.82%.

B4: TCR 17 (codon optimized, cysteine modified version) (TCR, V domains shown)
V domain 1: AQKITQTQPGMFVQEKEAVTLDCTYDTSDPSYGLFWYKQPSSGEMIFLIYQGSYDQQNATEGRYSLNFQKARKSANLVISASQLGDSAMYFCAMREGRGDKIIFGKGTRLHILP
V domain 2: DVKVTQSSRYLVKRTGEKVFLECVQDMDHENMFWYRQDPGLGLRLIYFSYDVKMKEKGDIPEGYSVSREKKERFSLILESASTNQTSMYLCASSLWGRSNQPQHFGDGTRLSILE
With B4, in assay [2], the “% cells in E6 tet+/CD8+ quadrant” value came out at 34.7%, the “% cells in E6 tet+/CD8- quadrant” value is 0.17%, the “% cells in E6 tet-/CD8+ quadrant” value was determined as 63.6% and the “% cells in E6 tet-/CD8- quadrant” value is 1.53%. In addition, in assay [3], the “% cells in E6 tet+/CD8+ quadrant” value stood at 36.2%, the “% cells in E6 tet+/CD8- quadrant” value is 21.3%, the “% cells in E6 tet-/CD8+ quadrant” value was 7.72% and the “% cells in E6 tet-/CD8- quadrant” value is 34.8%.

B5: TCR 23 (codon optimized, cysteine modified version) (TCR, V domains shown)
V domain 1: AQKITQTQPGMFVQEKEAVTLDCTYDTSDQSYGLFWYKQPSSGEMIFLIYQGSYDEQNATEGRYSLNFQKARKSANLVISASQLGDSAMYFCAMSPPGGSARQLTFGSGTQLTVLP
V domain 2: DVKVTQSSRYLVKRTGEKVFLECVQDMDHENMFWYRQDPGLGLRLIYFSYDVKMKEKGDIPEGYSVSREKKERFSLILESASTNQTSMYLCASSPWGQSNQPQHFGDGTRLSILE
With B5, in assay [2], the “% cells in E6 tet+/CD8+ quadrant” value was found to be 43.6%, the “% cells in E6 tet+/CD8- quadrant” value came out at 0.18%, the “% cells in E6 tet-/CD8+ quadrant” value came to 54.1% and the “% cells in E6 tet-/CD8- quadrant” value was determined as 2.14%. In assay [3], the “% cells in E6 tet+/CD8+ quadrant” value worked out at 52.5%, the “% cells in E6 tet+/CD8- quadrant” value was determined as 22.5%, the “% cells in E6 tet-/CD8+ quadrant” value was determined as 5.19% and the “% cells in E6 tet-/CD8- quadrant” value amounted to 19.7%.

B6: TCR 18 (codon optimized, cysteine modified version) (TCR, V domains shown)
V domain 1: KQEVTQIPAALSVPEGENLVLNCSFTDSAIYNLQWFRQDPGKGLTSLLLIQSSQREQTSGRLNASLDKSSGRSTLYIAASQPGDSATYLCAEGNAGGTSYGKLTFGQGTILTVHP
V domain 2: DVKVTQSSRYLVKRTGEKVFLECVQDMDHENMFWYRQDPGLGLRLIYFSYDVKMKEKGDIPEGYSVSREKKERFSLILESASTNQTSMYLCASSFWGRSNSPLHFGNGTRLTVTE
With B6, in assay [2], the “% cells in E6 tet+/CD8+ quadrant” value amounted to 50.4%, the “% cells in E6 tet+/CD8- quadrant” value is 0.045%, the “% cells in E6 tet-/CD8+ quadrant” value was found to be 47.7% and the “% cells in E6 tet-/CD8- quadrant” value was 1.86%. For the same molecule, in assay [3], the “% cells in E6 tet+/CD8+ quadrant” value came out at 23.3%, the “% cells in E6 tet+/CD8- quadrant” value came to 3.61%, the “% cells in E6 tet-/CD8+ quadrant” value is 12% and the “% cells in E6 tet-/CD8- quadrant” value is 61.1%.

B7: TCR 27 (codon optimized, cysteine modified version) (TCR, V domains shown)
V domain 1: DAKTTQPNSMESNEEEPVHLPCNHSTISGTDYIHWYRQLPSQGPEYVIHGLTSNVNNRMASLAIAEDRKSSTLILHRATLRDAAVYYCILRVPPQSGGYQKVTFGTGTKLQVIP
V domain 2: NAGVTQTPKFQVLKTGQSMTLQCAQDMNHNSMYWYRQDPGMGLRLIYYSASEGTTDKGEVPNGYNVSRLNKREFSLRLESAAPSQTSVYFCASSEFGSLNEKLFFGSGTQLSVLE
As to B7, in assay [2], the “% cells in E6 tet+/CD8+ quadrant” value was found to be 24.5%, the “% cells in E6 tet+/CD8- quadrant” value came out at 0.02%, the “% cells in E6 tet-/CD8+ quadrant” value turned out to be 73.5% and the “% cells in E6 tet-/CD8- quadrant” value amounted to 1.96%. For the same molecule, in assay [3], the “% cells in E6 tet+/CD8+ quadrant” value is 15.8%, the “% cells in E6 tet+/CD8- quadrant” value worked out at 3.5%, the “% cells in E6 tet-/CD8+ quadrant” value worked out at 20.1% and the “% cells in E6 tet-/CD8- quadrant” value amounted to 60.6%.

B8: TCR 30 (codon optimized, cysteine modified version) (TCR, V domains shown)
V domain 1: DAKTTQPPSMDCAEGRAANLPCNHSTISGNEYVYWYRQIHSQGPQYIIHGLKNNETNEMASLIITEDRKSSTLILPHATLRDTAVYYCIVRGTSVLQGNEKLTFGTGTRLTIIP
V domain 2: EPEVTQTPSHQVTQMGQEVILRCVPISNHLYFYWYRQILGQKVEFLVSFYNNEISEKSEIFDDQFSVERPDGSNFTLKIRSTKLEDSAMYFCASSRQPSSGNTIYFGEGSWLTVVE
As to B8, in assay [3], the “% cells in E6 tet+/CD8+ quadrant” value was 31%, the “% cells in E6 tet+/CD8- quadrant” value came to 0.74%, the “% cells in E6 tet-/CD8+ quadrant” value is 13.9% and the “% cells in E6 tet-/CD8- quadrant” value is 54.3%.

B9: TCR 21 (codon optimized, cysteine modified version) (TCR, V domains shown)
V domain 1: AQKITQTQPGMFVQEKEAVTLDCTYDTSDQSYGLFWYKQPSSGEMIFLIYQGSYDEQNATEGRYSLNFQKARKSANLVISASQLGDSAMYFCAMREGRVTGGGNKLTFGTGTQLKVEL
V domain 2: NAGVTQTPKFQVLKTGQSMTLQCAQDMNHNSMYWYRQDPGMGLRLIYYSASEGTTDKGEVPNGYNVSRLNKREFSLRLESAAPSQTSVYFCASRPWGNQNTEAFFGQGTRLTVVE
With B9, in assay [2], the “% cells in E6 tet+/CD8+ quadrant” value is 51.6%, the “% cells in E6 tet+/CD8- quadrant” value was found to be 0.22%, the “% cells in E6 tet-/CD8+ quadrant” value amounted to 46% and the “% cells in E6 tet-/CD8- quadrant” value amounted to 2.18%. Moreover, in assay [3], the “% cells in E6 tet+/CD8+ quadrant” value is 28.8%, the “% cells in E6 tet+/CD8- quadrant” value turned out to be 32.7%, the “% cells in E6 tet-/CD8+ quadrant” value turned out to be 7.16% and the “% cells in E6 tet-/CD8- quadrant” value worked out at 31.3%.

B10: TCR 28 (codon optimized, cysteine modified version) (TCR, V domains shown)
V domain 1: RKEVEQDPGPFNVPEGATVAFNCTYSNSASQSFFWYRQDCRKEPKLLMSVYSSGNEDGRFTAQLNRASQYISLLIRDSKLSDSATYLCVVRGGGTSYGKLTFGQGTILTVHP
V domain 2: DVKVTQSSRYLVKRTGEKVFLECVQDMDHENMFWYRQDPGLGLRLIYFSYDVKMKEKGDIPEGYSVSREKKERFSLILESASTNQTSMYLCASSLWGRSSGNTIYFGEGSWLTVVE
Regarding B10, in assay [3], the “% cells in E6 tet+/CD8+ quadrant” value amounted to 13.1%, the “% cells in E6 tet+/CD8- quadrant” value stood at 0.15%, the “% cells in E6 tet-/CD8+ quadrant” value was found to be 31.4% and the “% cells in E6 tet-/CD8- quadrant” value was found to be 55.4%.

B11: TCR 24 (codon optimized, cysteine modified version) (TCR, V domains shown)
V domain 1: AQKITQTQPGMFVQEKEAVTLDCTYDTSDQSYGLFWYKQPSSGEMIFLIYQGSYDEQNATEGRYSLNFQKARKSANLVISASQLGDSAMYFCAMREGRGDSWGKLQFGAGTQVVVTP
V domain 2: DVKVTQSSRYLVKRTGEKVFLECVQDMDHENMFWYRQDPGLGLRLIYFSYDVKMKEKGDIPEGYSVSREKKERFSLILESASTNQTSMYLCASSPFGRGSYEQYFGPGTRLTVTE
Take B11: in assay [2], the “% cells in E6 tet+/CD8+ quadrant” value turned out to be 29.1%, the “% cells in E6 tet+/CD8- quadrant” value was found to be 0.13%, the “% cells in E6 tet-/CD8+ quadrant” value is 66.2% and the “% cells in E6 tet-/CD8- quadrant” value turned out to be 4.51%. In assay [3], the “% cells in E6 tet+/CD8+ quadrant” value came to 55%, the “% cells in E6 tet+/CD8- quadrant” value came to 23.5%, the “% cells in E6 tet-/CD8+ quadrant” value is 5.56% and the “% cells in E6 tet-/CD8- quadrant” value came out at 16%.

B12: TCR 29 (codon optimized, cysteine modified version) (TCR, V domains shown)
V domain 1: AQKITQTQPGMFVQEKEAVTLDCTYDTSDQSYGLFWYKQPSSGEMIFLIYQGSYDEQNATEGRYSLNFQKARKSANLVISASQLGDSAMYFCAMRLNTGTASKLTFGTGTRLQVTL
V domain 2: DGGITQSPKYLFRKEGQNVTLSCEQNLNHDAMYWYRQDPGQGLRLIYYSQIVNDFQKGDIAEGYSVSREKKESFPLTVTSAQKNPTAFYLCASSPWGRATNEQFFGPGTRLTVLE
Regarding B12, in assay [3], the “% cells in E6 tet+/CD8+ quadrant” value stood at 35.6%, the “% cells in E6 tet+/CD8- quadrant” value is 44.5%, the “% cells in E6 tet-/CD8+ quadrant” value is 2% and the “% cells in E6 tet-/CD8- quadrant” value was 17.9%.

B13: TCR 22 (codon optimized, cysteine modified version) (TCR, V domains shown)
V domain 1: GQNIDQPTEMTATEGAIVQINCTYQTSGFNGLFWYQQHAGEAPTFLSYNVLDGLEEKGRFSSFLSRSKGYSYLLLKELQMKDSASYLCAVRARMDSNYQLIWGAGTKLIIKP
V domain 2: DAGVTQSPTHLIKTRGQHVTLRCSPISGHKSVSWYQQVLGQGPQFIFQYYEKEERGRGNFPDRFSARQFPNYSSELNVNALLLGDSALYLCASSRTENYGYTFGSGTRLTVVE
With B13, in assay [2], the “% cells in E6 tet+/CD8+ quadrant” value was determined as 51.2%, the “% cells in E6 tet+/CD8- quadrant” value was found to be 0.14%, the “% cells in E6 tet-/CD8+ quadrant” value was 47.3% and the “% cells in E6 tet-/CD8- quadrant” value is 1.38%.
